Assay results as given in article PMC7418779.

Target: human platelet actin (non-muscle actin), used as monomeric ATP-G-actin or as pre-formed F-actin (human) (UniProt P60709)
Test: co-sedimentation

Substance	Kd [nM]	percent remaining in supernatant (not pelleted with F-actin) [%]
FLAG-tagged SHTN1L lacking CCD-I (1L-ΔCCD-I), purified (domain or fragment)	21.9	–
FLAG-tagged SHTN1L, full length, purified (from UniProt Q8K2Q9 1-631) (natural protein)	164	50
